Test [1] addresses pHrodo-labeled 4R0N human tau P301L soluble oligomer (human), P10636. Briefly: cell-based or functional assay.
In test [2] the target is recombinant human tau (human) (UniProt P10636). Briefly: SPR, Biacore T200: antibody captured on anti-mouse CM5 chip, recombinant human tau 10-0.14 nM as analyte, global 1:1 fit. In general terms: SPR reads the build-up and loss of mass on a sensor chip optically.

For orientation: Kd means the concentration at which binding is half-saturated. The term koff denotes the first-order rate constant of dissociation. For orientation: kon means a measure of how fast the partners come together.

recombinant human tau (human), sequence (P10636 other isoform, or with tags, fused parts or gaps limits assumed): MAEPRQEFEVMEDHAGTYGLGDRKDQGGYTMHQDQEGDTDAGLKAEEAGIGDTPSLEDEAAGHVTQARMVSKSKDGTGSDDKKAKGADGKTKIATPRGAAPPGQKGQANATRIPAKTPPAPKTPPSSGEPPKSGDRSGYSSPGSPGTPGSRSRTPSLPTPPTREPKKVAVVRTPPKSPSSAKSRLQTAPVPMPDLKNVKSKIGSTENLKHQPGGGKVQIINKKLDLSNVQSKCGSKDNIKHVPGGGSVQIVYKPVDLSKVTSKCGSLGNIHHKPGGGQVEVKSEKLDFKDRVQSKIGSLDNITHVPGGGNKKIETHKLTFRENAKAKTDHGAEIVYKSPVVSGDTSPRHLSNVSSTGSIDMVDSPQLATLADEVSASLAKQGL
pHrodo-labeled 4R0N human tau P301L soluble oligomer (human), P10636, sequence (P10636 other isoform, or with tags, fused parts or gaps P301L P301L): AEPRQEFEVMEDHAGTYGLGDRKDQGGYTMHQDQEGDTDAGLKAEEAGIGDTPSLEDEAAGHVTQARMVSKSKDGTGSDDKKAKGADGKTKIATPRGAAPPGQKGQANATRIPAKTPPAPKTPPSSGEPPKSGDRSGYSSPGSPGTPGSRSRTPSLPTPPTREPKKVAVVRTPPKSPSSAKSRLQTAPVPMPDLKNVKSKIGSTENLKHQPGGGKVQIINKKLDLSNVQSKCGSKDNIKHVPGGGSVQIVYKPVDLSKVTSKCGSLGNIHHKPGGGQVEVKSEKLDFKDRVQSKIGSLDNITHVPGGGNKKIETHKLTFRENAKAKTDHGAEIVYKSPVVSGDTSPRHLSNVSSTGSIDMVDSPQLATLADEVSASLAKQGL

B1: Hu3D6VHvb6 / Hu3D6VLvb2 (antibody, V domains shown)
VH: EVQLVQSGAEVVKPGATVKISCKASGFTIKDYYLHWVRQRPGKGLEWIGWIDPEDGETVYDPKFQGRVTITADTSTDTAYMELSSLRSEDTAVYFCSTLDFWGQGTLVTVSS
VL: not shown
modifications: here or on the partner: pHrodo-labeled
B1: the Inhibition of cell based internalization (at 133 nM antibody concentration, % of inhibition of maximal fluorescent signal) in test [1] was found to be 76.3%.

B2: Hu3D6VHvb5 / Hu3D6VLvb2 (antibody, V domains shown)
VH: EVQLVQSGAEVVKPGATVKISCKASGFTIKDYYLHWVRQRPGKGLEWIGWIDPEDGETIYDPKFQGRVTITADTSTDTAYMELSSLRSEDTAVYYCSTLDFWGQGTLVTVSS
VL: not shown
modifications: here or on the partner: pHrodo-labeled
With B2, the Inhibition of cell based internalization (at 133 nM antibody concentration, % of inhibition of maximal fluorescent signal) in test [1] worked out at 67.2%.

B3: Hu3D6VHvb5 / Hu3D6VLvb3 (antibody, V domains shown)
VH: EVQLVQSGAEVVKPGATVKISCKASGFTIKDYYLHWVRQRPGKGLEWIGWIDPEDGETIYDPKFQGRVTITADTSTDTAYMELSSLRSEDTAVYYCSTLDFWGQGTLVTVSS
VL: DVVMTQSPLSLSVTLGEPASISCRSSQSLLDSDGKTYLNWLQQRPGQSPRRLIYLVSKLDSGVPDRFSGSGSGTDFTLKISRVEAEDVGVYYCWQGTHFPYTFGQGTKLEIKR
modifications: here or on the partner: pHrodo-labeled
In test [1], B3 yielded an Inhibition of cell based internalization (at 133 nM antibody concentration, % of inhibition of maximal fluorescent signal) of 67.7%.

B4: Hu3D6VHvb3 / Hu3D6VLvb3 (antibody, V domains shown)
VH: EVQLVQSGAEVVKPGATVKISCKASGFNIKDYYLHWVRQRPGKGLEWIGWIDPENGDTIYDPKFQGRATITADTSTDTAYMELSSLRSEDTAVYYCSTLDFWGQGTLVTVSS
VL: DVVMTQSPLSLSVTLGEPASISCRSSQSLLDSDGKTYLNWLQQRPGQSPRRLIYLVSKLDSGVPDRFSGSGSGTDFTLKISRVEAEDVGVYYCWQGTHFPYTFGQGTKLEIKR
modifications: here or on the partner: pHrodo-labeled
For B4, the Inhibition of cell based internalization (at 133 nM antibody concentration, % of inhibition of maximal fluorescent signal) in test [1] was found to be 72.1%.

B5: Hu3D6VHvb4 / Hu3D6VLvb2 (antibody, V domains shown)
VH: EVQLVQSGAEVVKPGATVKISCKASGFTIKDYYLHWVRQRPGKGLEWIGWIDPENGDTIYDPKFQGRVTITADTSTDTAYMELSSLRSEDTAVYYCSTLDFWGQGTLVTVSS
VL: not shown
modifications: here or on the partner: pHrodo-labeled
As to B5, the Inhibition of cell based internalization (at 133 nM antibody concentration, % of inhibition of maximal fluorescent signal) in test [1] is 61%.

B6: Hu3D6VHvb4 / Hu3D6VLvb3 (antibody, V domains shown)
VH: EVQLVQSGAEVVKPGATVKISCKASGFTIKDYYLHWVRQRPGKGLEWIGWIDPENGDTIYDPKFQGRVTITADTSTDTAYMELSSLRSEDTAVYYCSTLDFWGQGTLVTVSS
VL: DVVMTQSPLSLSVTLGEPASISCRSSQSLLDSDGKTYLNWLQQRPGQSPRRLIYLVSKLDSGVPDRFSGSGSGTDFTLKISRVEAEDVGVYYCWQGTHFPYTFGQGTKLEIKR
modifications: here or on the partner: pHrodo-labeled
B6 came in with an Inhibition of cell based internalization (at 133 nM antibody concentration, % of inhibition of maximal fluorescent signal) in test [1] of 49%.

B7: Hu3D6VHvb2 / Hu3D6VLvb3 (antibody, V domains shown)
VH: EVQLVQSGAEVVKPGASVKISCKASGFNIKDYYLHWVRQRPGKGLEWIGWIDPENGDTVYDPKFQGRATITADTSTDTAYLELSSLTSEDTAVYFCSTLDFWGQGTLVTVSS
VL: DVVMTQSPLSLSVTLGEPASISCRSSQSLLDSDGKTYLNWLQQRPGQSPRRLIYLVSKLDSGVPDRFSGSGSGTDFTLKISRVEAEDVGVYYCWQGTHFPYTFGQGTKLEIKR
modifications: here or on the partner: pHrodo-labeled
B7: in test [1], the Inhibition of cell based internalization (at 133 nM antibody concentration, % of inhibition of maximal fluorescent signal) turned out to be 85%.

B8: Hu3D6VHvb3 / Hu3D6VLvb2 (antibody, V domains shown)
VH: EVQLVQSGAEVVKPGATVKISCKASGFNIKDYYLHWVRQRPGKGLEWIGWIDPENGDTIYDPKFQGRATITADTSTDTAYMELSSLRSEDTAVYYCSTLDFWGQGTLVTVSS
VL: not shown
modifications: here or on the partner: pHrodo-labeled
With B8, the Inhibition of cell based internalization (at 133 nM antibody concentration, % of inhibition of maximal fluorescent signal) in test [1] is 71.2%.

B9: Hu3D6VHvb7 / Hu3D6VLvb3 (antibody, V domains shown)
VH: EVQLVQSGAEVVKPGATVKISCKASGFTIKDYYLHWVRQRPGKGLEWIGWIDPEDGETVYDPKFQGRVTITADTSTDTAYMELSSLRSEDTAVYYCSTLDFWGQGTLVTVSS
VL: DVVMTQSPLSLSVTLGEPASISCRSSQSLLDSDGKTYLNWLQQRPGQSPRRLIYLVSKLDSGVPDRFSGSGSGTDFTLKISRVEAEDVGVYYCWQGTHFPYTFGQGTKLEIKR
modifications: here or on the partner: pHrodo-labeled
Take B9: the Inhibition of cell based internalization (at 133 nM antibody concentration, % of inhibition of maximal fluorescent signal) in test [1] is 66%.

B10: Hu3D6VHvb7 / Hu3D6VLvb2 (antibody, V domains shown)
VH: EVQLVQSGAEVVKPGATVKISCKASGFTIKDYYLHWVRQRPGKGLEWIGWIDPEDGETVYDPKFQGRVTITADTSTDTAYMELSSLRSEDTAVYYCSTLDFWGQGTLVTVSS
VL: not shown
modifications: here or on the partner: pHrodo-labeled
In test [1], B10 yielded an Inhibition of cell based internalization (at 133 nM antibody concentration, % of inhibition of maximal fluorescent signal) of 74.5%.

B11: Hu3D6VHvb6 / Hu3D6VLvb3 (antibody, V domains shown)
VH: EVQLVQSGAEVVKPGATVKISCKASGFTIKDYYLHWVRQRPGKGLEWIGWIDPEDGETVYDPKFQGRVTITADTSTDTAYMELSSLRSEDTAVYFCSTLDFWGQGTLVTVSS
VL: DVVMTQSPLSLSVTLGEPASISCRSSQSLLDSDGKTYLNWLQQRPGQSPRRLIYLVSKLDSGVPDRFSGSGSGTDFTLKISRVEAEDVGVYYCWQGTHFPYTFGQGTKLEIKR
modifications: here or on the partner: pHrodo-labeled
As for B11, the Inhibition of cell based internalization (at 133 nM antibody concentration, % of inhibition of maximal fluorescent signal) in test [1] came to 70%.

B12: Hu3D6VHvb2 / Hu3D6VLvb2 (antibody, V domains shown)
VH: EVQLVQSGAEVVKPGASVKISCKASGFNIKDYYLHWVRQRPGKGLEWIGWIDPENGDTVYDPKFQGRATITADTSTDTAYLELSSLTSEDTAVYFCSTLDFWGQGTLVTVSS
VL: not shown
modifications: here or on the partner: pHrodo-labeled
For the molecule B12, the Inhibition of cell based internalization (at 133 nM antibody concentration, % of inhibition of maximal fluorescent signal) in test [1] stood at 84.9%.

B13: Hu3D6VHvb1 / Hu3D6VLvb1 (antibody, V domains shown)
VH: QVQLQQSGAELVKPGASVKLSCTASGFNIKDYYLHWVKQRPEQGLEWIGWIDPENGDTVYDPKFQGKATITADTSSNTAYLQLSSLTSEDTAVYFCSTLDFWGQGTTLTVSS
VL: not shown
modifications: here or on the partner: pHrodo-labeled
For the molecule B13, the Inhibition of cell based internalization (at 133 nM antibody concentration, % of inhibition of maximal fluorescent signal) in test [1] turned out to be 80%.

B14: 7G6 (antibody, from another filing, V domains shown)
VH: QVQLLQPGAELVKPGASVIMSCKASGYTFTTYWITWVKQRPGQGLEWIGDIYPGSSICNYNEKFKSKATLTVDTSSSTAYMQLNSLTSEDSAVYYCAREDGYDAWFAYWGQGTLVTVSA
VL: DVLMTQTPLSLPVSLGDQASISCRSSQSILHSNGNTYLEWYLQKPGQSPKLLICKVSNRFSGVPDRFSGSGSGTDFTLKISRVEAEDLGVYYCFQGSHVPFTFGSGTKLEIK
As to B14, in test [2], the dissociation constant (Kd) is 5.77 nM, the koff was 0.00332 s⁻¹ and the kon turned out to be 576000 M⁻¹ s⁻¹.

For the origin of these results see patent publication US20220153821A1.
